Results on two molecules are retold here after doi:10.1101/2025.07.29.667382 (bioRxiv, 2025).

Groups on a side chain read outwards from the residue. No end group written: not given here. Alexa‑547 = not defined here

Assay [1] concerns the target Retromer^mClover (Vps26-Vps29-Vps35, carrying mClover on Vps29) (yeast, UniProt P40335;P38759;P34110). Briefly: coat formation on supported membrane tubes, fluorescence microscopy.
The target of assay [2] is T1, Snx3 (recombinant, without fluorescent tag) (yeast, UniProt Q08826 1-162).
T1 sequence: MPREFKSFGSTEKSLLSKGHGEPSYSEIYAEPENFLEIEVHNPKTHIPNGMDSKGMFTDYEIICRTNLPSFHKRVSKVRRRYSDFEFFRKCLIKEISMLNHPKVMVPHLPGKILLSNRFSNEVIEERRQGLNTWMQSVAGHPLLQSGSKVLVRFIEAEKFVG
The description is as above.

Sequence of Retromer^mClover (Vps26-Vps29-Vps35, carrying mClover on Vps29) (P40335 whole entry, chain 1 of 3): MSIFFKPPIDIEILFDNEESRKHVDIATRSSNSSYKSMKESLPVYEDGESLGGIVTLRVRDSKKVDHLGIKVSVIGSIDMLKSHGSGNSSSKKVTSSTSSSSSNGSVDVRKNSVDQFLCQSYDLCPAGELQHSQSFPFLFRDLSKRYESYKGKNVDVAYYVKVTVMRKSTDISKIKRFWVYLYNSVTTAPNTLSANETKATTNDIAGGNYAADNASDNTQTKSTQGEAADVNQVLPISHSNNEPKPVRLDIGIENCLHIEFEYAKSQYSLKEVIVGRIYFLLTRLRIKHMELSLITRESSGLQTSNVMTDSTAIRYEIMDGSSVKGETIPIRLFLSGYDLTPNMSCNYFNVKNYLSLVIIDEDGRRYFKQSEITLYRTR
Sequence of Retromer^mClover (Vps26-Vps29-Vps35, carrying mClover on Vps29) (P38759 whole entry, chain 2 of 3): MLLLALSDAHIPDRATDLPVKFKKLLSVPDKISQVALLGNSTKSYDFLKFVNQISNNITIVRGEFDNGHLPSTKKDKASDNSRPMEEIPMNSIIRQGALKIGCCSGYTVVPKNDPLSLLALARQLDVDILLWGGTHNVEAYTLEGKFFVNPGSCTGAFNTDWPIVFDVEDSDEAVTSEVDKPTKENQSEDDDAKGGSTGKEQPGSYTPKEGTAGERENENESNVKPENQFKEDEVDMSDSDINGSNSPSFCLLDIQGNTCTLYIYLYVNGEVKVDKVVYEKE
Sequence of Retromer^mClover (Vps26-Vps29-Vps35, carrying mClover on Vps29) (P34110 whole entry, chain 3 of 3): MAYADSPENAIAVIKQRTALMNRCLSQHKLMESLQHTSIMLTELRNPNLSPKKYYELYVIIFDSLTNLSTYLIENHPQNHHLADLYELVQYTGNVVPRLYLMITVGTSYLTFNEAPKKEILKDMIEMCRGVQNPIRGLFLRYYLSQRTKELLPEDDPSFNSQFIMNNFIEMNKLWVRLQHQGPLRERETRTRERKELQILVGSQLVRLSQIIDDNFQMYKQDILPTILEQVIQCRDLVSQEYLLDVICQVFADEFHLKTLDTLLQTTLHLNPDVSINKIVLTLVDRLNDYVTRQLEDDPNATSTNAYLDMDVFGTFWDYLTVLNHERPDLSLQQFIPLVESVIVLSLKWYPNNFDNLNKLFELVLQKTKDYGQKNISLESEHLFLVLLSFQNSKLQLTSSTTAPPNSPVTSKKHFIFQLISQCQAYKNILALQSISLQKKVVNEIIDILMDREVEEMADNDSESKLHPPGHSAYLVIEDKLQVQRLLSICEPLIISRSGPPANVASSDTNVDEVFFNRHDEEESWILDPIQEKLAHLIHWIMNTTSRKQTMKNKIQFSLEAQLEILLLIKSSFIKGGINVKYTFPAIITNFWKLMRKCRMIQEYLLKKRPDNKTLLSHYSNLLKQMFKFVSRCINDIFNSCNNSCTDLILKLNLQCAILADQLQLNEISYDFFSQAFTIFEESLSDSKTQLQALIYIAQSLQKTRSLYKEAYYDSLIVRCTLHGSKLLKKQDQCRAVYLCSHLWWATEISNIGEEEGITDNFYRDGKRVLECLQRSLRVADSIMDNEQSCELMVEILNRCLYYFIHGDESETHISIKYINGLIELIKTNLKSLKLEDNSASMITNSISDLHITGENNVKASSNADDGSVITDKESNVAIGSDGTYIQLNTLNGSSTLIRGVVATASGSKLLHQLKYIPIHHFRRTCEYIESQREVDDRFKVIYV

As to GGGGGKKIINEEINLDSLGGC([maleimide-Alexa‑547]) (reading uncertain) [Ear1^547 (fluorescent Alexa-547-labelled Ear1 peptide)], the binding result in assay [1] and in assay [2] was “binds” throughout.

B1: SNX-BAR (Vps5-Vps17) (complex)
chain 1: MDYEDNLEAPVWDELNHEGDKTQSLVSNSIESIGQISTNEERKDNELLETTASFADKIDLDSAPEWKDPGLSVAGNPQLEEHDNSKADDLINSLAPEQDPIADLKNSTTQFIATRESGGALFTGNANSPLVFDDTIYDANTSPNTSKSISGRRSGKPRILFDSARAQRNSKRNHSLKAKRTTASDDTIKTPFTDPLKKAEKENEFVEEPLDDRNERRENNEGKFTASVEKNILEQVDRPLYNLPQTGANISSPAEVEENSEKFGKTKIGSKVPPTEKAVAFKVEVKDPVKVGELTSIHVEYTVISESSLLELKYAQVSRRYRDFRWLYRQLQNNHWGKVIPPPPEKQSVGSFKENFIENRRFQMESMLKKICQDPVLQKDKDFLLFLTSDDFSSESKKRAFLTGSGAINDSNDLSEVRISEIQLLGAEDAAEVLKNGGIDAESHKGFMSISFSSLPKYNEADEFFIEKKQKIDELEDNLKKLSKSLEMVDTSRNTLAASTEEFSSMVETLASLNVSEPNSELLNNFADVHKSIKSSLERSSLQETLTMGVMLDDYIRSLASVKAIFNQRSKLGYFLVVIENDMNKKHSQLGKLGQNIHSEKFREMRKEFQTLERRYNLTKKQWQAVGDKIKDEFQGFSTDKIREFRNGMEISLEAAIESQKECIELWETFYQTNL
chain 2: MTSAVPYDPYDDLDNNPFAEPQEEDSEPAATTTDGSSSMSEERVGTEQTAASVQDNGTANNIQNGLGEEGNATRSKTSNEHNENQQPSQPSERVILPERSDEKKKYTLLAKVTGLERFGSATGKKENPTIIFDCSTNLPTFRKQQYKNVKKSYEEFHQLFKYLNVAIQESFVPTLPSAYTTFGINSEEDRMKVTRNFQLWFNRLSQDPLIIRNEEVAFFIESDFNTYTPINKSKSLASGLKRKTLKQLAPPYDEITELAEFRPLVKSIYVVSQSLQEKLLRVSRNRKMMVQEENAFGQDFVNLDEHNKLYRRYGKILTAVGDIDSIIATMDMATLYDGLEWIVRDAYAVKEALTNRHFIMRNLVQAQQNSKAKQEQARRFRSRRDINPMKIDEALRQLKAAAKNEQVLTLKLQRITSNMIIERKQWISWYEEWIRSSIKEFTLRKIEYERKKLTLLERVRSDIRKADENGGLSRLGRHAVSNNNSDTSQTLKGDSWTGESNRKSQIPINKIAHTEFDDELFTEDDGYNSQDSDTTSLNARHAASLLGMSTK
As for B1, the binding result in assay [1] is given as “binds”.
